From paper PMC10333338, “Mechanism of ATP hydrolysis dependent rotation of bacterial ATP synthase” (Nature Communications, 2023) come the findings set out here.

The assay deals with T1, α subunit of the F1 domain of FoF1 ATP synthase from Geobacillus stearothermophilus (Bacillus PS3 sp.) (G. stearothermophilus (Bacillus PS3 sp.), UniProt P09219 1-502).
T1 construct: ATP synthase subunit alpha, Bacillus PS3 sp; (G. stearothermophilus); subunit of the ΔεCT-FoF1 complex; Three copies stand in the F1 domain (α3β3γ); The complex was purified on Ni-NTA; also called αE; αT
T1 sequence (P09219 whole entry, the tested form may be a part): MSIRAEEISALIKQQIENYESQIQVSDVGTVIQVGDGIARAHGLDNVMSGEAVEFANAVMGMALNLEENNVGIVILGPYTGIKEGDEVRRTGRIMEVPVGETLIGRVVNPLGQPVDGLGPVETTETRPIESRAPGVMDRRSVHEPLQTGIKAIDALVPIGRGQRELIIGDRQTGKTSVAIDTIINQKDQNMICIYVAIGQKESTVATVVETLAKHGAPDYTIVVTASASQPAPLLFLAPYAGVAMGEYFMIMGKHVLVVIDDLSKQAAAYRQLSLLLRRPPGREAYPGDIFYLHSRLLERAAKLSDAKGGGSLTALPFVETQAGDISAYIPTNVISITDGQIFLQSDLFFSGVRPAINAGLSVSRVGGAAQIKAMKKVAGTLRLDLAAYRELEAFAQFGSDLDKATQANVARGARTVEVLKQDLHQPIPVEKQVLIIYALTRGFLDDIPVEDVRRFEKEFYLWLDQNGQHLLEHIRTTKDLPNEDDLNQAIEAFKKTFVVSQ
Description: cryo-EM structure; purified ΔεCT-FoF1 in DDM, 9 µM enzyme; 26 mM ATP-Mg, 20 s at 25 °C (high [ATP], nucleotide-depleted enzyme) or 25 µM ATP with pyruvate kinase and PEP, 60 s at 25 °C (low [ATP]); flash frozen; focused refinement on the F1 domain. As to conditions: both partners purified.

B1: γ subunit of the F1 domain of FoF1 ATP synthase from Geobacillus stearothermophilus (Bacillus PS3 sp.) (natural protein, G. stearothermophilus (Bacillus PS3 sp.), UniProt P09222 5-286, looked up)
chain: ASLRDIKTRINATKKTSQITKAMEMVLTSKLNRAEKREIVRPYMEKIQEVVANVALAARASHPMLVSRPVKKTGYLVITSDRGLAGAYNSNVLRLVYQTIQKRHASPDEYAIIVIGRVGLSFFRKRNMPVILDITRLPDQPSFADIKEIARKTVGLFADGTFDELYMYYNHYVSAIQQEVTERKLLPLTDLAENKQRTVYEFEPSQEEILDVLLPQYAESLIYGALLDAKASEHAARMTAMKNATDNANELIRTLTLSYNRARQAAITQEITEIVAGANALQ
notes: ATP synthase gamma chain, Bacillus PS3 sp; (G. stearothermophilus); subunit of the ΔεCT-FoF1 complex; One copy in the centre of α3β3; also called γ-stalk; central γ subunit
Regarding B1, the binding result is “binds”.
